The record followed here is patent US20220396632A1 (VERSEAU THERAPEUTICS, published 2022).

Assay [1] has as its target T1, Biotin PSGL-1(42-62) peptide, unmodified (human, C-terminal Lys-biotin).
T1 construct: Residues 42-62 followed by GGGK-biotin; also called WT; wild-type
T1 peptide: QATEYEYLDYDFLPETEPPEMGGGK
The assay is described as follows: ELISA, immobilized biotin peptide. In short, it runs like this: (§1)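 In this ELISA, half-well high binding plates (Corning Cat. #3690) received 3 ug/mL/25 ul per well of biotin-tagged PSGL-1 peptides covering residues 42 to 62, diluted in PBS, pH 7.4, and coated overnight at 4° C. Duplicate readings for each antibody were averaged and the average assay background was subtracted. PSGL-1 protein or peptide was the positive control.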
For orientation: ELISA stands for enzyme-linked immunosorbent assay.

Assay [2] addresses T2, Scrambled Y46,48,51(SO3) PSGL-1(42-62) biotin peptide (sulfotyrosine at peptide positions 5, 7 and 10; C-terminal Lys-biotin).
T2 construct: also called scrambled sulfated peptide: biotin
T2 peptide: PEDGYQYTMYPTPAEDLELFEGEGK
Briefly: ELISA, immobilized biotin peptide. The method in brief: as §1

Assay [3] has as its target T3, Biotin Y46,48,51(SO3) PSGL-1(42-62) peptide (human, sulfotyrosine at Y46, Y48 and Y51; C-terminal Lys-biotin).
T3 construct: also called fully sulfated N-terminal PSGL-1 peptide
T3 peptide: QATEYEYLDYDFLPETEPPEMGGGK
The assay is described as follows: ELISA, immobilized biotin peptide. The method in brief: as §1

In assay [4] the target is T4, Scrambled Y42,52,63(SO3) PSGL-1(42-62) biotin peptide (sulfotyrosine at peptide positions 1, 11 and 22; C-terminal Lys-biotin).
T4 peptide: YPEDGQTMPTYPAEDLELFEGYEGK
The assay is described as follows: ELISA, immobilized biotin peptide. The method in brief: as §1

The target in assay [5] is T5, Biotin sY51 PSGL-1(42-62) peptide (human, sulfotyrosine at Y51; C-terminal Lys-biotin).
T5 construct: also called Y51(SO3) PSGL-1(42-62)
T5 peptide: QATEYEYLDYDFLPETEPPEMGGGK
The assay is described as follows: ELISA, immobilized biotin peptide. The method in brief:
as §1

Assay [6] deals with T1, Biotin PSGL-1(42-62) peptide, unmodified. The assay is described as follows: ELISA, plate-bound target.
In assay [7] the target is T6, Recombinant human PSGL-1(ECD)-hFc1 (R&D Systems, Cat. 3345-PS) (human, UniProt Q14242 42-305).
T6 construct: Bought; Gln42-Val295 counted on AAC50061; also called PSGL-1-Fc; PSGL-1-hFc1 chimera; not shown: human IgG1 Fc, Pro100-Lys330
T6 sequence: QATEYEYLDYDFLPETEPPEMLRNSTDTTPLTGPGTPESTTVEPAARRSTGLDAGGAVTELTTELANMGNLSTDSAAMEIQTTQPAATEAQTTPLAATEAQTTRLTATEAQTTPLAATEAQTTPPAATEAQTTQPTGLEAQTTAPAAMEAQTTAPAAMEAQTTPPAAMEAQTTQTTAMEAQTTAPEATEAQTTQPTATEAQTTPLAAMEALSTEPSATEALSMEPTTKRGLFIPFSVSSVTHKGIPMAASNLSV
Briefly: ELISA, plate-bound target.

Assay [8] addresses T3, Biotin Y46,48,51(SO3) PSGL-1(42-62) …. The assay is described as follows: ELISA, plate-bound target.

B1: 05D01 (antibody, V domains shown)
VH: QVTLRESGGALVQPGGSLRLSCAASGFPLRSNAMTWVRQAPGKGLEWVSDIRGNGASTYYADSVKGRFTISRDDSNNILFLQMNSLRAEDTAVYYCVGHGSSSYWGQGTLVTVSS
VL: DVVMTQSPLSLPVTLGQPASISCRSSQSLVYRDGNIYLNWFQQRPGQSPRRLIYKVSNRDSGVPDRFSGSGSGTDFTLKISRVEAEDVGVYYCMQLTHWPPGFAQGTKLEIK
Broadly, the EC50 is the concentration needed to bring the measured effect to its halfway point. On to B1, for which the results for the “A450nm, 20 nM mAb” value in assay [1], in assay [3] and in assay [4] were 1.33 A450nm, 2.85 A450nm and 0.01 A450nm, respectively. This molecule also registered an EC50 in assay [2] of 1.33 nM. In addition, the binding result in assay [4] was “no binding (tested: 20 nM)”.

B2: 20I15 (antibody, V domains shown)
VH: EVKLVESGGGLVQPGGSLSLSCAASGFTFTDYYMSWVRQPPGKALEWLGFIRNKANGYTTEYSASVKGRFTISRDNSQSILYLQMNALRAEDSATYYCARTYLRRGYFDVWGTGTTVTVSS
VL: DIVLTQSPASLAVSLGQRATISCRASKSVSTSGYSYMHWFQQKPGQPPKLLIYLASNLESGVPARFSGSGSGTDFTLNIHPVEEEDAATYYCQHSRELPLTFGAGTKLELK
notes: From mouse immunisation; only variable domains given; also called 20115
For B2, the EC50 in assay [1] is roughly 300 nM; in assay [5], 178 nM; in assay [3], 0.485 nM. Moreover, the binding result in assay [2] was “no binding”.

B3: 9F9 (antibody, V domains shown)
VH: EVQLVETGGGLVQPKGSLKLSCAASGFTFNTNAMNWVRQAPGKGLEWVARIRSKSNNYATYYADSVKDRFTISRDDTQSMIYLQMNNLKTEDTGMYYCVRGGSYWYFDVWGAGTTVTVSS
VL: DVLMTQTPLSLPVSLGDQASISCRSSQSIVNSNGNTYLEWYLQKPGQSPKLLIYKVSNRFSGVPDRFSGSGSGTDFTLKISRVEAEDLGVYYCFQGSHVPWTFGGGTKLEIK
notes: Control anti-PSGL-1 mAb, recombinant; only variable domains given; also called 9F6
Turning to B3, the EC50 in assay [6] is 0.04 nM; in assay [7], 0.06 nM; in assay [8], 0.05 nM.

B4: 43B6 (antibody, V domains shown)
VH: EVQLQQSGPDLVKPGALVKISCKASGYSFTAYYIHWVKQSHGKSLEWIGRVNPNTGGTSYNPKFKGKAILNVDKSSSTAYMELRSLTSEDSAVYYCARSGSPYYRYDDWGQGTTLTVSS
VL: ENVLTQSPAIMSASPGEKVTMTCRASSTVNSTYLHWFQQKSGASPKLWIYGSSNLASGVPARFSGSGSGTSYSLTISSVEAEDAATYYCQQYSGYPLTFGAGTTLELK
notes: Control anti-PSGL-1 mAb, recombinant; only variable domains given; also called 43B3
Regarding B4, the EC50 was found to be 0.03 nM in assay [6], 0.05 nM in assay [7] and 0.04 nM in assay [8].
